B1: HDV Ribozyme (parent)
chain: GGCCGGCAUGGUCCCAGCCUCCUCGCUGGCGCCGGCUGGGCAACAUUCCGAGGGGACCGUCCCCUCGGUAAUGGCGAAUGGGACCCA

Variants of: B1
Assay: self-cleavage, relative activity (ratio to wild type); higher = more cleavage; co-transcriptional

Variant	self-cleavage
GGCCGGCAUGGUCCCAGCCUCCUCGCUGGCGCCGGCUGGUCAACAUUCCGAGGGGACCGUCCCAUCGGUAAUGGCGAAUGGGACCCA	0.57
GGCCGGCAUGGUCCCAGCCUCCUCGCUGGCGCCGGCUGGUCAACAUUCCGAGGGGACCGUCCCUUCGGUAAUGGCGAAUGGGACCCA	0.59
GGCCGGCAUGGUCCCAGCCUCCUCGCUGGCGCCGGCUGGCCAACAUUCCGAGGGGACCGUCCCCGCGGUAAUGGCGAAUGGGACCCA	0.237
GGCCGGCAUGGUCCCAGCCUCCUCGCUGGCGCCGGCUGGGAAACAUUCCGAGGGGACCGUCCCCUCGGUAAUGGCGAAUGGGACCGA	0.739
GGCCGGCAUGGUCCCAGCCUCCUCGCUGGCGCCGGCUGGUCAACAUUCCGAGGGGACCGUCCCCUCGGUAAUGGCGAAUGUGACCCA	0.0989
GGCCGGCAUGGUCCCAGCCUCCUCGCUGGCGCCGGCUGGUCAACAUUCCGAGGGGACCGUCCCCUCGGUAAUGGCGAAUGGGCCCCA	0.453
GGCCGGCAUGGUCCCAGCCUCCUCGCUGGCGCCGGCUGGUCAACAUUCCGAGGGGACCGUCCCCUCGGUAAUGGCGAAUGGGGCCCA	0.597
GGCCGGCAUGGUCCCAGCCUCCUCGCUGGCGCCGGCUGGCCAACAUUCCGAGGGGACCGUCCCCUCGGAAAUGGCGAAUGGGACCCA	0.119
GGCCGGCAUGGUCCCAGCCUCCUCGCUGGCGCCGGCUGGGAAACAUUCCGAGGGGACCGUCCCCUCGGUAAUGGCAAAUGGGACCCA	0.845
GGCCGGCAUGGUCCCAGCCUCCUCGCUGGCGCCGGCUGGGAAACAUUCCGAGGGGACCGUCCCCACGGUAAUGGCGAAUGGGACCCA	0.914
GGCCGGCAUGGUCCCAGCCUCCUCGCUGGCGCCGGCUGGUCAACAUUCCGAGGGGACCGUCCCCUCGGUAAUGGCGAAUAGGACCCA	0.197
GGCCGGCAUGGUCCCAGCCUCCUCGCUGGCGCCGGCUGGUCAACAUUCCGAGGUGACCGUCCCCUCGGUAAUGGCGAAUGGGACCCA	0.665
GGCCGGCAUGGUCCCAGCCUCCUCGCUGGCGCCGGCUGGUCAACAUUCCGAGGGGACCGUCCCCUCGGUAAUGCCGAAUGGGACCCA	0.111
GGCCGGCAUGGUCCCAGCCUCCUCGCUGGCGCCGGCUGGUCAACAUUCCGAGGGGACCGUCCCCUCGGUAAUGUCGAAUGGGACCCA	0.468
GGCCGGCAUGGUCCCAGCCUCCUCGCUGGCGCCGGCUGGGAAACAUUCCGAGGGGACCGUCCCCUCUGUAAUGGCGAAUGGGACCCA	0.739
GGCCGGCAUGGUCCCAGCCUCCUCGCUGGCGCCGGCUGGGAAACAUUCCGAGGGGACCGUCCCCUCAGUAAUGGCGAAUGGGACCCA	0.914
GGCCGGCAUGGUCCCAGCCUCCUCGCUGGCGCCGGCUGGGAUACAUUCCGAGGGGACCGUCCCCUCGGUAAUGGCGAAUGGGACCCA	0.743
GGCCGGCAUGGUCCCAGCCUCCUCGCUGGCGCCGGCUGGGACACAUUCCGAGGGGACCGUCCCCUCGGUAAUGGCGAAUGGGACCCA	0.739
GGCCGGCAUGGUCCCAGCCUCCUCGCUGGCGCCGGCUGGGAAACAUUGCGAGGGGACCGUCCCCUCGGUAAUGGCGAAUGGGACCCA	0.898
GGCCGGCAUGGUCCCAGCCUCCUCGCUGGCGCCGGCUGGGAAAGAUUCCGAGGGGACCGUCCCCUCGGUAAUGGCGAAUGGGACCCA	0.323
GGCCGGCAUGGUCCCAGCCUCCUCGCUGGCGCCGGCUGGGAAACAUCCCGAGGGGACCGUCCCCUCGGUAAUGGCGAAUGGGACCCA	0.932
GGCCGGCAUGGUCCCAGCCUCCUCGCUGGCGCCGGCUGGGAAACAUGCCGAGGGGACCGUCCCCUCGGUAAUGGCGAAUGGGACCCA	1.08

Variant	self-cleavage
GGCCGGCAUGGUCCCAGCCUCCUCGCUGGCGCCGGCUGGGAAACAUUCCGAGGGGACCGUCCCCUCGGUAAUGGCGAAUGGAACCCA	0.223
GGCCGGCAUGGUCCCAGCCUCCUCGCUGGCGCCGGCUGGGAAACAUUCCGAGGGGACCGUCCCCUCGGUAAUGGCGAAUGGCACCCA	0.289
GGCCGGCAUGGUCCCAGCCUCCUCGCUGGCGCCGGCUGGGAAACAUUCCGAGGGGACCGUCCCCUCGGUAAUGGCGAAUGGUACCCA	0.348
GGCCGGCAUGGUCCCAGCCUCCUCGCUGGCGCCGGCUGGUCAACAUUCCGAGGGGACCUUCCCCUCGGUAAUGGCGAAUGGGACCCA	0.732
GGCCGGCAUGGUCCCAGCCUCCUCGCUGGCGCCGGCUGGGAAACAUUCCGAGGGGGCCGUCCCCUCGGUAAUGGCGAAUGGGACCCA	1.15
GGCCGGCAUGGUCCCAGCCUCCUCGCUGGCGCCGGCUGGUCAACAUUCCGAGGGGACCGUCCCCUCAGUAAUGGCGAAUGGGACCCA	0.699
GGCCGGCAUGGUCCCAGCCUCCUCGCUGGCGCCGGCUGGUGAACAUUCCGAGGGGACCGUCCCCUCGGUAAUGGCGAAUGGGACCCA	0.729
GGCCGGCAUGGUCCCAGCCUCCUCGCUGGCGCCGGCUGGGAAACAUUCCGAGGGGACCGUCCCCUCGGUAAUGGCGAAAGGGACCCA	0.656
GGCCGGCAUGGUCCCAGCCUCCUCGCUGGCGCCGGCUGGUCAACAUUCCGAGGGGACCGUCCCCUCGGUGAUGGCGAAUGGGACCCA	0.528
GGCCGGCAUGGUCCCAGCCUCCUCGCUGGCGCCGGCUGGGAAACAUUCCGAGGGGACCGUCCCCUCGGUAAUGGCGAAUGAGACCCA	0.242
GGCCGGCAUGGUCCCAGCCUCCUCGCUGGCGCCGGCUGGGAAACAUUCCGAGGGGACCCUCCCCUCGGUAAUGGCGAAUGGGACCCA	0.911
GGCCGGCAUGGUCCCAGCCUCCUCGCUGGCGCCGGCUGGGAAACAUUCCGAGGGGACCAUCCCCUCGGUAAUGGCGAAUGGGACCCA	0.844
GGCCGGCAUGGUCCCAGCCUCCUCGCUGGCGCCGGCUGGUCAACAUUCCGAGAGGACCGUCCCCUCGGUAAUGGCGAAUGGGACCCA	0.715
GGCCGGCAUGGUCCCAGCCUCCUCGCUGGCGCCGGCUGGGAAACAUUCCGAGGGGACCGUCCCCUCGGUAAUGGCGAAUGGGGCCCA	0.732
GGCCGGCAUGGUCCCAGCCUCCUCGCUGGCGCCGGCUGGCCAACAUUCCGAGGGGACCGACCCCUCGGUAAUGGCGAAUGGGACCCA	0.25
GGCCGGCAUGGUCCCAGCCUCCUCGCUGGCGCCGGCUGGUCAACAUUCCGAGGGGACCGUCCCCUCGGUAAUGGCGAGUGGGACCCA	0.199
GGCCGGCAUGGUCCCAGCCUCCUCGCUGGCGCCGGCUGGGAAACAUUCCGAGGGGACCGUCCCCUCGGUAAUGUCGAAUGGGACCCA	0.513
GGCCGGCAUGGUCCCAGCCUCCUCGCUGGCGCCGGCUGGGAAACAUUCCGAGGGGACCGUCCCCUCGGUAAUAGCGAAUGGGACCCA	0.912
GGCCGGCAUGGUCCCAGCCUCCUCGCUGGCGCCGGCUGGGAAACAUUCCGAGGGGACCGUCCCCUCGGUAAUUGCGAAUGGGACCCA	0.873
GGCCGGCAUGGUCCCAGCCUCCUCGCUGGCGCCGGCUGGGAAACAUUCCGAGGGGACCGUCCCCUCGGUCAUGGCGAAUGGGACCCA	0.527
GGCCGGCAUGGUCCCAGCCUCCUCGCUGGCGCCGGCUGGGAAACAUUCCGAGGGGACCGUCCCCUCGGUGAUGGCGAAUGGGACCCA	0.916
GGCCGGCAUGGUCCCAGCCUCCUCGCUGGCGCCGGCUGGUCAACAUUCCGAGGGGACCGUCCCCUCGGUAAUGGCGAAUGGGACCCG	0.578

Variant	self-cleavage
GGCCGGCAUGGUCCCAGCCUCCUCGCUGGCGCCGGCUGGUCAACAUUCCGAGGGGACAGUCCCCUCGGUAAUGGCGAAUGGGACCCA	0.67
GGCCGGCAUGGUCCCAGCCUCCUCGCUGGCGCCGGCUGGUCAACAUUCCGAGGGGACUGUCCCCUCGGUAAUGGCGAAUGGGACCCA	0.669
GGCCGGCAUGGUCCCAGCCUCCUCGCUGGCGCCGGCUGGGAAACAUUCCGAGGGGACCGUCCCCUCGGUAAUGGCGAUUGGGACCCA	0.354
GGCCGGCAUGGUCCCAGCCUCCUCGCUGGCGCCGGCUGGUCAACAUUCCGAGGGGACCGUCCCCUCGGUAAUGGGGAAUGGGACCCA	0.166
GGCCGGCAUGGUCCCAGCCUCCUCGCUGGCGCCGGCUGGGAAACAUUCCGAGGGGACCGUCCCCUCGGCAAUGGCGAAUGGGACCCA	0.898
GGCCGGCAUGGUCCCAGCCUCCUCGCUGGCGCCGGCUGGGAAACAUUCCGAGGGGACCGUCCCCUCGGGAAUGGCGAAUGGGACCCA	0.975
GGCCGGCAUGGUCCCAGCCUCCUCGCUGGCGCCGGCUGGUCUACAUUCCGAGGGGACCGUCCCCUCGGUAAUGGCGAAUGGGACCCA	0.496
GGCCGGCAUGGUCCCAGCCUCCUCGCUGGCGCCGGCUGGUCAACAUGCCGAGGGGACCGUCCCCUCGGUAAUGGCGAAUGGGACCCA	0.46
GGCCGGCAUGGUCCCAGCCUCCUCGCUGGCGCCGGCUGGGAAACAUUCCGAGGGGACCGUCGCCUCGGUAAUGGCGAAUGGGACCCA	0.324
GGCCGGCAUGGUCCCAGCCUCCUCGCUGGCGCCGGCUGGGAAACAUUCCGAGGGCACCGUCCCCUCGGUAAUGGCGAAUGGGACCCA	0.831
GGCCGGCAUGGUCCCAGCCUCCUCGCUGGCGCCGGCUGGGAAACAUUCCGAGGGGACCGUCCCCUAGGUAAUGGCGAAUGGGACCCA	0.804
GGCCGGCAUGGUCCCAGCCUCCUCGCUGGCGCCGGCUGGGAAACAUUCCGAGGGGACCGUCCCCUGGGUAAUGGCGAAUGGGACCCA	0.91
GGCCGGCAUGGUCCCAGCCUCCUCGCUGGCGCCGGCUGGGAAACAUUCCGAGGGGACCGUCCCGUCGGUAAUGGCGAAUGGGACCCA	0.884
GGCCGGCAUGGUCCCAGCCUCCUCGCUGGCGCCGGCUGGGAAACAUUCGGAGGGGACCGUCCCCUCGGUAAUGGCGAAUGGGACCCA	0.91
GGCCGGCAUGGUCCCAGCCUCCUCGCUGGCGCCGGCUGGGAAACAUUCCGAGGGGACCGUCCCCUCGGUAAUGGCGAAUCGGACCCA	0.164
GGCCGGCAUGGUCCCAGCCUCCUCGCUGGCGCCGGCUGGGAAACAUUCCGAGGGGACGGUCCCCUCGGUAAUGGCGAAUGGGACCCA	0.935
GGCCGGCAUGGUCCCAGCCUCCUCGCUGGCGCCGGCUGGGGAACAUUCCGUGGGGACCGUCCCCUCGGUAAUGGCGAAUGGGACCCA	1.18
GGCCGGCAUGGUCCCAGCCUCCUCGCUGGCGCCGGCUGGGGAACAUUCCGGGGGGACCGUCCCCUCGGUAAUGGCGAAUGGGACCCA	0.499
GGCCGGCAUGGUCCCAGCCUCCUCGCUGGCGCCGGCUGGUCAACACUCCGAGGGGACCGUCCCCUCGGUAAUGGCGAAUGGGACCCA	0.227
GGCCGGCAUGGUCCCAGCCUCCUCGCUGGCGCCGGCUGGUCAACAUUCCGUGGGGACCGUCCCCUCGGUAAUGGCGAAUGGGACCCA	0.806

Source: the RNAGym collection of RNA variant scans (doi:10.7554/elife.80360)
